Molecular target: Dfd (Deformed);Exd (Extradenticle) (Drosophila melanogaster?;Drosophila melanogaster?) (UniProt P07548+P40427)
Test: EMSA
Conditions: class 2 site printed as 9.1 mM in same passage; assay source not fully shown; 20 mM HEPES pH 7.9, 1.4 mM MgCl2, 1 mM ZnSO4, 40 mM KCl, 0.1 mM EGTA, 5% glycerol, 10 mM DTT, 0.1% NP40, 200 ng poly(dI-dC), 3 ug BSA, 2 pmol Cy5 dsDNA in …

Dfd (Deformed);Exd (Extradenticle) (Drosophila melanogaster?;Drosophila melanogaster?), sequence (P07548 whole entry, chain 1 of 2): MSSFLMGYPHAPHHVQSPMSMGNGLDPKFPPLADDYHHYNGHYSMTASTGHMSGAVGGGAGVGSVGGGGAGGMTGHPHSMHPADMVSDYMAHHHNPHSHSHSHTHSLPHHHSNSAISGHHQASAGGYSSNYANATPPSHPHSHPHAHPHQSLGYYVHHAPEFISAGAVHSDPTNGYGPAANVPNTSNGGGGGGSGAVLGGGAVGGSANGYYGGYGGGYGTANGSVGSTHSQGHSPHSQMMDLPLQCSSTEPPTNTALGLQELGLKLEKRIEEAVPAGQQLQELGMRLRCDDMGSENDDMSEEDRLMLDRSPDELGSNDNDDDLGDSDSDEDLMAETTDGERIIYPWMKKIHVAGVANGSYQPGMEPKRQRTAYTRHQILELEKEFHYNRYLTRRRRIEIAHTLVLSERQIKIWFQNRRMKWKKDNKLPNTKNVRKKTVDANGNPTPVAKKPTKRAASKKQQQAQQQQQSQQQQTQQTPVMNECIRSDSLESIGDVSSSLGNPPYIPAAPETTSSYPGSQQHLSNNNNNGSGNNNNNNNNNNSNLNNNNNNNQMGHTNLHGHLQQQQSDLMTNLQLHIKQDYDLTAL
Dfd (Deformed);Exd (Extradenticle) (Drosophila melanogaster?;Drosophila melanogaster?), sequence (P40427 whole entry, chain 2 of 2): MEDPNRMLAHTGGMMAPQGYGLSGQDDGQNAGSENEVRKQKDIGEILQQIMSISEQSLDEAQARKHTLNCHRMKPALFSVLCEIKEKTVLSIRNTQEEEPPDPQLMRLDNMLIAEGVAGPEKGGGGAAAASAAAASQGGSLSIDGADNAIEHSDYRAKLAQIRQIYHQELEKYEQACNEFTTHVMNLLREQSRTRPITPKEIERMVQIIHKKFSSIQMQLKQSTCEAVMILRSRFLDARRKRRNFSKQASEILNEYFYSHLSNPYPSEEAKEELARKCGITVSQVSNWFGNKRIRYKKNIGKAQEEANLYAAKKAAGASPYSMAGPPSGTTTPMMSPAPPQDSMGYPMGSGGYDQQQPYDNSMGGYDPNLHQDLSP

modC enhancer site I
Kd (mM (so in the source); probably nM)): 5.5
